Experimental data published in the Immune Epitope Database (IEDB).

Assays:
[1] = target: HLA-A*02:02; assay: IEDB peptide-MHC binding, purified MHC/competitive/radioactivity; filed as Kd, often an IC50 or EC50 that approximates it; ≥ and ≤ were set here for values at or beyond the usual limits of such assays
[2] = target: HLA-A*02:03; assay: as above
[3] = target: HLA-A*68:02; assay: as above
[4] = target: HLA-A*02:01; assay: as above
[5] = target: HLA-A*02:06; assay: as above
[6] = target: HLA-B*51:01; assay: IEDB peptide-MHC binding, purified MHC/competitive/fluorescence; filed as Kd, often an IC50 or EC50 that approximates it; ≥ and ≤ were set here for values at or beyond the usual limits of such assays; details: source organism: Yersinia pestis Nepal516
[7] = target: HLA-A*03:01; assay: IEDB peptide-MHC binding, purified MHC/competitive/radioactivity; filed as Kd, often an IC50 or EC50 that approximates it; ≥ and ≤ were set here for values at or beyond the usual limits of such assays; details: source organism: Vaccinia virus WR
[8] = target: HLA-A*68:01; assay: as above; details: source organism: Vaccinia virus WR
[9] = target: HLA-A*31:01; assay: as above; details: source organism: Vaccinia virus WR
[10] = target: HLA-A*33:01; assay: as above; details: source organism: Vaccinia virus WR
[11] = target: HLA-A*11:01; assay: as above; details: source organism: Vaccinia virus WR
[12] = target: HLA-A*26:01; assay: IEDB peptide-MHC binding, purified MHC/competitive/fluorescence; filed as Kd, often an IC50 or EC50 that approximates it; ≥ and ≤ were set here for values at or beyond the usual limits of such assays; details: source organism: Bacillus thuringiensis serovar israelensis ATCC 35646
[13] = target: HLA-B*51:01; assay: IEDB peptide-MHC binding, purified MHC/competitive/radioactivity; filed as Kd, often an IC50 or EC50 that approximates it; ≥ and ≤ were set here for values at or beyond the usual limits of such assays; details: source organism: Vaccinia virus WR
[14] = target: HLA-B*35:01; assay: as above; details: source organism: Vaccinia virus WR
[15] = target: HLA-B*53:01; assay: as above; details: source organism: Vaccinia virus WR
[16] = target: HLA-B*07:02; assay: as above; details: source organism: Vaccinia virus WR
[17] = target: HLA-B*54:01; assay: as above; details: source organism: Vaccinia virus WR
[18] = target: HLA-B*44:02; assay: as above
[19] = target: HLA-B*40:01; assay: as above
[20] = target: HLA-B*18:01; assay: as above
[21] = target: HLA-B*40:02; assay: as above
[22] = target: HLA-B*44:03; assay: as above
[23] = target: HLA-B*45:01; assay: as above
[24] = target: HLA-A*01:01; assay: as above; details: source organism: Dengue virus 3 Martinique/1243/1999
[25] = source organism: Lassa virus GA391
[26] = source organism: Vaccinia virus WR
[27] = source organism: Dengue virus 3 Martinique/1243/1999
[28] = source organism: Dengue virus 4 Philippines/H241/1956
[29] = source organism: SARS coronavirus Tor2
[30] = source organism: Lassa virus Josiah
[31] = source organism: Mammarenavirus whitewaterense
[32] = source organism: Dengue virus 2 Jamaica/1409/1983
[33] = source organism: Mammarenavirus brazilense

LLHGLDFSEV
Kd [1, 25]: 0.117 µM
Kd [2, 25]: 0.00357 µM
Kd [3, 25]: ≥ 5 µM
Kd [4, 25]: 0.0658 µM
Kd [5, 25]: 0.0712 µM

LPFVWAPMV
Kd [6]: 0.0399 µM

LPRPDTRHL
Kd [7]: ≥ 58.2 µM
Kd [1, 26]: ≥ 77.8 µM
Kd [2, 26]: ≥ 78.1 µM
Kd [3, 26]: ≥ 76.9 µM
Kd [4, 26]: ≥ 78.1 µM
Kd [8]: ≥ 77.7 µM
Kd [9]: ≥ 77.9 µM
Kd [5, 26]: 18.4 µM
Kd [10]: ≥ 77.7 µM
Kd [11]: ≥ 77.9 µM

LTVAWRTATL
Kd [3, 27]: 0.0324 µM

NIHTAITQV
Kd [2, 28]: 0.0261 µM
Kd [3, 28]: 0.152 µM

NTIRNAASF
Kd [12]: 0.0735 µM

NTYLFNILY
Kd [7]: 0.625 µM
Kd [1, 26]: 1.57 µM
Kd [2, 26]: 1.55 µM
Kd [13]: 17.7 µM
Kd [3, 26]: 7.35 µM
Kd [4, 26]: 0.946 µM
Kd [8]: 0.722 µM
Kd [14]: 10.5 µM
Kd [9]: 0.688 µM
Kd [15]: 5.69 µM
Kd [5, 26]: 6.11 µM
Kd [10]: 1.48 µM
Kd [11]: 0.263 µM
Kd [16]: ≥ 29.2 µM
Kd [17]: 1.43 µM

PEANMDQESF
Kd [18, 29]: 7.54 µM
Kd [19, 29]: 4.2 µM
Kd [20, 29]: ≥ 53.2 µM
Kd [21, 29]: 10.1 µM
Kd [22, 29]: 10.6 µM
Kd [23, 29]: ≥ 26 µM

QVMLLVLCV
Kd ([3]; source organism: Dengue virus 2 Peru/IQT2913/1996): 0.143 µM

REPTDLKQF
Kd [18, 30]: 1.51 µM
Kd [19, 30]: 2.88 µM
Kd [20, 30]: ≥ 55.4 µM
Kd [21, 30]: 1 µM
Kd [22, 30]: 8.46 µM
Kd [23, 30]: ≥ 77.7 µM

RLQQELDDL
Kd ([3]; source organism: Homo sapiens): ≥ 125 µM

SDHLISEIL
Kd [18, 31]: 9.12 µM
Kd [19, 31]: 8.52 µM
Kd [20, 31]: ≥ 77.5 µM
Kd [21, 31]: 0.0831 µM
Kd [22, 31]: ≥ 78.1 µM
Kd [23, 31]: 1.66 µM

SEFDRDAAM
Kd [18, 29]: 0.745 µM
Kd [19, 29]: 0.21 µM
Kd [20, 29]: 2.51 µM
Kd [21, 29]: 1.01 µM
Kd [22, 29]: 0.532 µM
Kd [23, 29]: 18.3 µM

TLNHVLALK
Kd [7]: 0.00247 µM
Kd [1, 26]: ≥ 77.8 µM
Kd [2, 26]: 0.281 µM
Kd [13]: ≥ 77.5 µM
Kd [3, 26]: ≥ 76.9 µM
Kd [4, 26]: ≥ 78.1 µM
Kd [8]: 0.00417 µM
Kd [14]: 10.4 µM
Kd [9]: 0.0361 µM
Kd [15]: ≥ 78.2 µM
Kd [5, 26]: 14.1 µM
Kd [10]: 0.656 µM
Kd [11]: 0.00128 µM
Kd [16]: ≥ 77.5 µM
Kd [17]: ≥ 78.1 µM

VVIAILTVV
Kd [2, 32]: 0.0338 µM
Kd [3, 32]: 0.347 µM
Kd [5, 32]: 0.0136 µM

YEAMYTPHT
Kd [18, 29]: ≥ 21.8 µM
Kd [19, 29]: 14.4 µM
Kd [20, 29]: 2.8 µM
Kd [21, 29]: 0.242 µM
Kd [22, 29]: 13 µM
Kd [23, 29]: 0.149 µM

YEQQTVNST
Kd [18, 33]: ≥ 34.1 µM
Kd [19, 33]: ≥ 54.2 µM
Kd [20, 33]: 1.13 µM
Kd [21, 33]: 0.0783 µM
Kd [22, 33]: ≥ 78.1 µM
Kd [23, 33]: 1.21 µM

YSIPATLLV
Kd [3, 27]: 0.0169 µM
Kd [5, 27]: 0.0102 µM
Kd [24]: 0.941 µM
